Reference: patent US20150167014A1, “MODULATION OF PLANT GROWTH BY VAS1 MUTATION” (THE SALK INSTITUTE FOR BIOLOGICAL STUDIES, priority 2013, published 2015)
Positions count from the first letter of the chain named. Names and notes keep the numbering of the source.

Experiments:
[1] = substrate: N[C@@H](Cc1c[nH]cn1)C(=O)O; test: Steady-state kinetic assay of VAS1 I267M transaminase activity (rate of loss of IPA at 321 nm); type: biochemical, Arabidopsis thaliana; settings: other: fixed 3-IPA 300 μM, variable L-His 0.1 to 10 mM, 0.4 μM VAS1 I267M, 100 μM PLP, pH 8.0, 23° C.
Procedure: (§1) FIG. 9A-B. Steady-state kinetic analyses of VAS1 I267M. […] Fixed concentration of L-His (10 mM) and variable concentrations of 3-IPA from 10 to 200 μM (A) Fixed concentration of 3-IPA (300 μM) and variable concentrations of L-His from 0.1 to 10 mM (B). Apparent KM, Vmax and kcat of VAS1 are shown above each curve and standard errors calculated from Graphpad Prism 5 software (www.graphpad.com).
(§2) The coding sequence of AtVAS1 was inserted between the NcoI and XhoI sites of the expression vector pHIS8 (“HIS8” disclosed as SEQ ID NO: 1) (a modified version of pET28a (+) containing an N-terminal 8-histidine tag (SEQ ID NO: 1)), which under the control of a T7 promoter. E. coli (BL21) cells harboring the AtVAS1 expression vector were grown in Terrific Broth at 37° C. until reaching an OD600 nm of 1.0 then cooled down to 18° C. and induced with 0.5 mM isopropyl-b-D-thiogalactoside (IPTG) and allowed to grow overnight at 18° C. for approximately 12-14 hr after. Cells were harvested by centrifugation and resuspended in lysis buffer (50 mM Tris-HCl, pH 8.0, 500 mM NaCl, 20 mM imidazole, 1% (v/v) Tween-20, 10% (v/v) glycerol, 10 mM 2-mercaptoethanol) containing lysozyme (0.5 mg/ml) at 4° C. for 1 hr and lysed by sonication. The lysate was centrifuged at 18,000 rpm for 45 min at 4° C. and then the supernatant were passed over Ni2+-NTA agarose (Qiagen). The AtVAS1 protein was eluted with lysate buffer supplemented with 250 mM imidazole after washed with wash buffer (lysis buffer without Tween-20 and glycerol). The N-terminal tag was cleaved by treatment with thrombin while dialyzing overnight in dialysis buffer (50 mM Tris-HCl, (pH8.0), 500 mM NaCl, 20 mM 2-mercaptoethanol). The thrombin and uncut AtVAS1 was removed by passing over Benzamidine Sepharose 4 Fast Flow (high sub) (GE Healthcare) and Ni2+-NTA agarose. AtVAS1 was further purified by size-exclusion chromatography using a Superdex 200 HR16/60 column. AtVAS1 fractions were combined, concentrated to approximately 12 mg ml-1 and frozen at −80° C. […]
(§3) For VAS1 I267M steady-state kinetic assays, 1 mL assay mixture contained 100 mM sodium phosphate buffer (pH 8.0), 0.4 μM recombinant VAS1 I 267M, 100 μM PLP and variable amounts of His (0.1 to 10 mM) and IPA (10 to 200 μM). The reactions were incubated at 23° C. and the OD321 nm were measured at 2-min, 5-min, 8-min, 10-min, 12-min and 15-min time points to monitor the linear rate of loss of IPA. Absorbance values were corrected to changes in IPA concentration based on an IPA standard curve. At 321 nm, absorbance from Trp was negligible. KM, kcat and Vmax were calculated by nonlinear regression analysis using GraphPad Prism 5 fits to the Michaelis-Menten equation.

[2] = substrate: O=C(O)C(=O)Cc1c[nH]c2ccccc12; test: as above; type: biochemical, Arabidopsis thaliana; settings: other: fixed L-His 10 mM, variable 3-IPA 10 to 200 μM, 0.4 μM VAS1 I267M, 100 μM PLP, pH 8.0, 23° C.
Procedure: as §1, §2, §3

[3] = biological target: the molecule itself; test: X-ray crystal structure of VAS1•PLP complex
[4] = Amino donor test of VAS1 variants (19 amino acids, 3-IPA as amino acceptor); type: biochemical, Arabidopsis thaliana; settings: 19 natural amino acids (except Trp) as amino donor
Procedure: VAS1 and its variants transaminase activity was monitor by HPLC-MS with an Agilent 1100 series LC-MSD instrument and an Agilent Zorbax Eclipse XDB-C18 (4.6×150 mm, […]) reversed-phase column. Chromatographic separations employed a flow rate of 0.5 mL min-1 and a linear gradient with initial and final mobile phases consisting of 95% water: 4.9%: acetonitrile: 0.1% formic acid (v/v/v), and 5% water: 94.9% acetonitrile: 0.1% formic acid (v/v/v), respectively. VAS1 mutants relative activity assays were conducted in a 200 μL volume containing 50 mM L-Met (with the exception of L-Trp), 10 mM IPA, 200 μM PLP and 10 μg of purified VAS1 or VAS1 variants protein in a reaction buffer consisting of 50 mM K2HPO4/KH2PO4 (pH 8.5). To further test the best amino donor of I267M and I267F mutant, one of 19 other amino acids (with the exception of L-Trp) was taking the place of L-Met. […] Relative specific activities were calculated after integration of the Trp peak (based on the absorbance at 254 nm) and the activity against Met and IPA was arbitrarily set to 100% for VAS1 variants M19V, M19I, M19F, I267V, 1267 M and I267F. […]

B1: Arabidopsis thaliana aminotransferase VAS1 (AtVAS1, NCBI Accession No. NP—178152, SEQ ID NO: 14), variant I267M (Ile267Met) (Arabidopsis thaliana; I267M) (protein)
chain: MGSFGMLSRRTLGTDMPVMAQIRSLMAELTNPMSLAQGVVHWQPPQKALEKVKELVWDPIISSYGPDEGLPELRQALLKKLREENKLTNSQVMVTAGANQAFVNLVITLCDAGDSVVMFEPYYFNSYMAFQMTGVTNIIVGPGQSDTLYPDADWLERTLSESKPTPKVVTVVNPGNPSGTYVPEPLLKRIAQICKDAGCWLIVDNTYEYFMYDGLKHCCVEGDHIVNVFSFSKTYGMMGWRLGYIAYSERLDGFATELVKIQDNIPMCAAIISQRLAVYALEEGSGWITERVKSLVKNRDIVKEALEPLGKENVKGGEGAIYLWAKLPEGHRDDFKVVRWLAHRHGVVVIPGCASGSPGYLRVSFGGLQEVEMRAAAARLRKGIEELLHHGMVE
notes: I267M by QuikChange mutagenesis
[1]
  Km: 534 µM
  kcat: 0.0392 s⁻¹
[2]
  Km: 62.4 µM
  kcat: 0.0447 s⁻¹

B2: Arabidopsis thaliana aminotransferase VAS1 (enzyme)
chain: B1 chain with M267I
modifications: PLP (pyridoxal phosphate) bound as internal aldimine to the epsilon-amino group of Lys 233
notes: The protein crystallised as a symmetric homodimer with PLP; also called AtVAS1
[3]
  binding result: binds

B3: VAS1: wild-type pyridoxalphosphate-dependent aminotransferase of Arabidopsis thaliana (protein)
chain: B1 chain with M267I
[4]
  aminotransferase activity / most efficient amino donor: Met is the most suitable amino donor
